The values below come from article PMC3364743.

The assay concerns the target T1, CAV1–mCherry (caveolin-1 fused to mCherry), Q03135.
T1 chain: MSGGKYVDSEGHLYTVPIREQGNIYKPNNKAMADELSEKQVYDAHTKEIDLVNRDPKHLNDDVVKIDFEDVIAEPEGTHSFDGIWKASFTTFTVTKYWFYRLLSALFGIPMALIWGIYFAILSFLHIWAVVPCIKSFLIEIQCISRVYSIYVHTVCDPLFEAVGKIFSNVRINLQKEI
The assay can be described thus: FRET or BRET. The following applies: remark: other sources report otherwise. For orientation: In BRET a luciferase serves as donor, and the signal depends on an acceptor being close.

B1: CAV1–mCherry (caveolin-1 fused to mCherry), Q03135 1-178 (natural protein)
chain: MSGGKYVDSEGHLYTVPIREQGNIYKPNNKAMADELSEKQVYDAHTKEIDLVNRDPKHLNDDVVKIDFEDVIAEPEGTHSFDGIWKASFTTFTVTKYWFYRLLSALFGIPMALIWGIYFAILSFLHIWAVVPCIKSFLIEIQCISRVYSIYVHTVCDPLFEAVGKIFSNVRINLQKEI
With B1, the FRET efficiency worked out at 48%.
